Experimental data published in US20180127493A1.

How the values were obtained:
[1] = molecular target: membrane-bound TNFalpha on stably transfected CHO cells (B-220 cells); experiment: FACS, anti-CD19 beads with TNFalpha-transfected CHO cells (FIG. 4, middle panel)
[2] = molecular target: membrane-bound TNFalpha on stably transfected CHO cells (B-220 cells); experiment: FACS, beads with CHO-TNFα (B220) cells, Sample 2
[3] = molecular target: membrane-bound TNFalpha on stably transfected CHO cells (B-220 cells); experiment: FACS, mixed beads with CHO-TNFα (B220) cells, Sample 4

# Events (cells bound to anti-CD19-APC beads) [1]: 6 events
% Parent [1]: 0.1%
% Total [1]: 0.1%
% bound beads [2]: 0.9%
% bound beads [3]: 0.4%
Substance: APC labeled unrelated antibody (anti-CD19), coated on beads
